Tests used:
MBP-DGKδSAM-H38A/V52E = test: SPR
MBP-DGKδSAM-V52E = MBP-DGKδSAM-V52E (UniProt Q16760); test: SPR

Kd (MBP-DGKδSAM-H38A/V52E): 23 µM
Kd (MBP-DGKδSAM-V52E): 12.2 µM
Substance: MBP-DGKδSAM-E35G (domain or fragment)
